In patent US20210363241A1:

What was measured:
[1] = target: Cynomolgus monkey CD226 on the cell surface of stably transfected HEK 293 cells (cynomolgus monkey); assay: flow cytometry on HEK 293 cells expressing cynomolgus CD226, control IgG (denominator of the ratio)
[2] = target: Human CD226 on the cell surface of stably transfected HEK 293 cells (human) (UniProt Q15762); assay: flow cytometry on HEK 293 cells expressing human CD226, control IgG (denominator of the ratio)
Sequence of Human CD226 on the cell surface of stably transfected HEK 293 cells (human) (Q15762 19-336 limits assumed): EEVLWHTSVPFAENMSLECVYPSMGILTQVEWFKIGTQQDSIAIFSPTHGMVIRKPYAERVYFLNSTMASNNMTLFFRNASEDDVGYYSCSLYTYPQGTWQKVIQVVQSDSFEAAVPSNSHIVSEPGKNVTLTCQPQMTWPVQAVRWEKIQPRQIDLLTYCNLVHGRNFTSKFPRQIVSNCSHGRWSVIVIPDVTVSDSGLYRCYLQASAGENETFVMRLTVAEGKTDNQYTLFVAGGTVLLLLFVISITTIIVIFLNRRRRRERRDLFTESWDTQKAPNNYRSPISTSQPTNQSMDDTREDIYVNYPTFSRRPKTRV

Sequence of Cynomolgus monkey CD226 on the cell surface of stably transfected HEK 293 cells (cynomolgus monkey) (chain, as listed by the source): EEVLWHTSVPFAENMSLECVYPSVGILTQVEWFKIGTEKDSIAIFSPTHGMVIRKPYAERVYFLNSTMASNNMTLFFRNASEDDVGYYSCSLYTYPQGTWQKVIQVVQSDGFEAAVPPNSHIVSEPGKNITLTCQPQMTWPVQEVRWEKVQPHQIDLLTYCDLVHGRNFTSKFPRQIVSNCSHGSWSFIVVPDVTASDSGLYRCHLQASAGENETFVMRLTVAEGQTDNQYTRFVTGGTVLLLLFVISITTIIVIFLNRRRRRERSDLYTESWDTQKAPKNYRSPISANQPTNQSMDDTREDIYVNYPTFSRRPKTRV

## Control human IgG1 (antibody)
[1]
  MFI: 3.94
[2]
  MFI: 8.98
